The text below walks through data of patent US20150110817A1, “RADIO-PHARMACEUTICAL COMPLEXES” (published 2015).

In experiment [1] the target is CD22 on CD22-positive Raji or Ramos cells (human) (UniProt P20273). Put plainly: flow cytometry on CD22-positive Raji cells. In general terms: In flow cytometry, cells or beads pass a laser one at a time.
Experiment [2] concerns the target CD33 on CD33-positive HL-60 cells (human, UniProt P20138). Put plainly: flow cytometry on HL-60 cells, 50:50 mixture; competitor: mouse anti-human CD33 reference mAb.
Description: Binding to CD33-positive HL-60 cells were studied by flow cytometry. The determination of EC₅₀ based on the plotted curve gives an approximate value for the affinity.
The mAb or conjugate to be analyzed was prepared fresh form frozen stock by shifting the storage buffer to PBS, kept at 4° C., and used within a few days after preparation. […] The secondary antibody reagent was prepared at 0.015 mg/mL in PBS, supplemented with 0.1% BSA. The mAb stock was diluted in 10-fold dilution steps, starting from 5 mg/mL. An isotype control mAb (trastuzumab) was prepared accordingly. 20 uL from each dilution step of the anti-human CD33 mAb was added to wells containing HL-60 cells. After incubation for 1 h at 4° C. the cells were spun down and washed three times with 200 μl cold PBS, supplemented with 0.1% BSA. A solution containing 4% goat serum was added as a blocking agent, and incubated for 15 minutes. 20 μl from the secondary antibody reagent was subsequently added to each well, before incubation for 30 min at 4° C. in the dark.
The cells were washed twice, as described above, and re-suspended in 200 μL PBS, supplemented with 0.1% BSA. All samples were analysed in 96-well round or conical bottom plates. Fluorescent signals were recorded on a Beckham Coulter Cell lab Quant SC flow cytometer (Beckman Coulter; CA, USA). […]

Broadly, the EC50 is the midpoint of the concentration-response curve. High values mean a need for much substance, low ones an effect from little substance. Turning to “AGC1100 (anti-CD22 monoclonal antibody hLL2, also called epratuzumab)”, the EC50 in experiment [1] was 9 nM.

B1: AGC1115 (AGC1100 conjugated to the water soluble chelator AGC0015) (antibody, INN chains, looked up, V domains shown)
VH: QVQLVQSGAEVKKPGSSVKVSCKASGYTFTSYWLHWVRQAPGQGLEWIGYINPRNDYTEYNQNFKDKATITADESTNTAYMELSSLRSEDTAFYFCARRDITTFYWGQGTTVTVSS
VL: DIQLTQSPSSLSASVGDRVTMSCKSSQSVLYSANHKNYLAWYQQKPGKAPKLLIYWASTRESGVPSRFSGSGSGTDFTFTISSLQPEDIATYYCHQYLSSWTFGGGTKLEIK
modifications: conjugated to chelator AGC0015
In experiment [1], B1 yielded an EC50 of 6 nM.

B2: AGC0700 (anti-CD33 monoclonal antibody, generated from the HuM195 template) (antibody, V domains shown)
VH: QVQLVQSGAEVKKPGSSVKVSCKASGYTFTDYNMHWVRQAPGQGLEWIGYIYPYNGGTGYNQKFKSKATITADESTNTAYMELSSLRSEDTAVYYCARGRPAMDYWGQGTLVTVSS
VL: DIQMTQSPSSLSASVGDRVTITCRASESVDNYGISFMNWFQQKPGKAPKLLIYAASNQGSGVPSRFSGSGSGTDFTLTISSLQPDDFATYYCQQSKEVPWTFGQGTKVEIKR
For the molecule B2, in experiment [2], the “fold less antibody bound” value is ~0.7 fold.
